Molecular target: T1, Mre11-W243R (Homo sapiens, UniProt P49959 1-708, W243R)
T1 sequence: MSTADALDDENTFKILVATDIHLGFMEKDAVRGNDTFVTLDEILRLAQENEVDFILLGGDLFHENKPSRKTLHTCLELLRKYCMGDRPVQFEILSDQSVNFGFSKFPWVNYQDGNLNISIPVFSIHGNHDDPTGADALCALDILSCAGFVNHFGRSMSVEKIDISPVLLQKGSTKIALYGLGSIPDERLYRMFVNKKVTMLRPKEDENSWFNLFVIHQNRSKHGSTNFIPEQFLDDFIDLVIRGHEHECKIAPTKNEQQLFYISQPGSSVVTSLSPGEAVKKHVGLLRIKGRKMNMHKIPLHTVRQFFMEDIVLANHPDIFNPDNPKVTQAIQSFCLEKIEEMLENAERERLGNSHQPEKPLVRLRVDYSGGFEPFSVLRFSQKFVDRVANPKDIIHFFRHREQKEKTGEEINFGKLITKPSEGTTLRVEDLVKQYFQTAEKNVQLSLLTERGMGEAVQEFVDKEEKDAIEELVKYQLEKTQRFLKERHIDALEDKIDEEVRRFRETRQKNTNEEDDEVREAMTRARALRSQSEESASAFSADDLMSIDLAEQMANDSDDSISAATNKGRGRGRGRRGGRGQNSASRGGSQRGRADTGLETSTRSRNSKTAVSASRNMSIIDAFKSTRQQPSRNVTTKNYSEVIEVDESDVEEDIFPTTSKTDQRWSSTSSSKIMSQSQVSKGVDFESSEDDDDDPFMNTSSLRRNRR
Assay: EMSA

B1: ssDNA90 (ssDNA)
DNA: AATTCTCATTTTACTTACCGGACGCTATTAGCAGTGGCAGATTGTACTGAGAGTGCACCATATGCGGTGTGAAATACCGCACAGATGCGT
B1: binds.

B2: dsDNA90 (dsDNA)
DNA 1: B1 DNA
DNA 2: ACGCATCTGTGCGGTATTTCACACCGCATATGGTGCACTCTCAGTACAATCTGCCACTGCTAATAGCGTCCGGTAAGTAAAATGAGAATT
B2: binds.

Reference: PMC3526295
